In general, stoichiometry N refers to the number of molecules, sites or subunits per partner or assembly.

The assay deals with human EME2 (His-EME2) (human). Put plainly: co-purification of co-expressed subunits.
Sequence of human EME2 (His-EME2) (human) (A4GXA9 whole entry): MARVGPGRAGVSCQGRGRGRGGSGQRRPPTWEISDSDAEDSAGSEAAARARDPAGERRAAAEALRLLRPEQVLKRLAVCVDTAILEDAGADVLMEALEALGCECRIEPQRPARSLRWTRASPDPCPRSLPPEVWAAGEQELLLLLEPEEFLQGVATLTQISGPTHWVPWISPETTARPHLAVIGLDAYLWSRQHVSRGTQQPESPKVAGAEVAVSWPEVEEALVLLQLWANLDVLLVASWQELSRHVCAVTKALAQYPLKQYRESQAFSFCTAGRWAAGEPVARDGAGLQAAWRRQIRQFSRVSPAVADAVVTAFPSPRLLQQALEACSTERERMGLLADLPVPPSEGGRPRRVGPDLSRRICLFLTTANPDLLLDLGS

B1: human MUS81 (enzyme)
chain: MAAPVRLGRKRPLPACPNPLFVRWLTEWRDEATRSRRRTRFVFQKALRSLRRYPLPLRSGKEAKILQHFGDGLCRMLDERLQRHRTSGGDHAPDSPSGENSPAPQGRLAEVQDSSMPVPAQPKAGGSGSYWPARHSGARVILLVLYREHLNPNGHHFLTKEELLQRCAQKSPRVAPGSARPWPALRSLLHRNLVLRTHQPARYSLTPEGLELAQKLAESEGLSLLNVGIGPKEPPGEETAVPGAASAELASEAGVQQQPLELRPGEYRVLLCVDIGETRGGGHRPELLRELQRLHVTHTVRKLHVGDFVWVAQETNPRDPANPGELVLDHIVERKRLDDLCSSIIDGRFREQKFRLKRCGLERRVYLVEEHGSVHNLSLPESTLLQAVTNTQVIDGFFVKRTADIKESAAYLALLTRGLQRLYQGHTLRSRPWGTPGNPESGAMTSPNPLCSLLTFSDFNAGAIKNKAQSVREVFARQLMQVRGVSGEKAAALVDRYSTPASLLAAYDACATPKEQETLLSTIKCGRLQRNLGPALSRTLSQLYCSYGPLT
Turning to B1, the stoichiometry N is 1.

These data come from publication PMC4027171.
